# B1: interferon regulatory factor-5 (IRF5): si-OGT (protein)
# parent chain: MNQSIPVAPTPPRRVRLKPWLVAQVNSCQYPGLQWVNGEKKLFCIPWRHATRHGPSQDGDNTIFKAWAKETGKYTEGVDEADPAKWKANLRCALNKSRDFRLIYDGPRDMPPQPYKIYEVCSNGPAPTDSQPPEDYSFGAGEEEEEEEELQRMLPSLSLTEDVKWPPTLQPPTLQPPVVLGPPAPDPSPLAPPPGNPAGFRELLSEVLEPGPLPASLPPAGEQLLPDLLISPHMLPLTDLEIKFQYRGRPPRALTISNPHGCRLFYSQLEATQEQVELFGPISLEQVRFPSPEDIPSDKQRFYTNQLLDVLDRGLILQLQGQDLYAIRLCQCKVFWSGPCASAHDSCPNPIQREVKTKLFSLEHFLNELILFQKGQTNTPPPFEIFFCFGEEWPDRKPREKKLITVQVVPVAARLLLEMFSGELSWSADSIRLQISNPDLKDRMVEQFKELHHIWQSQQRLQPVAQAPPGAGLGVGQGPWPMHPAGMQ
# Test: Co-IP and immunoblot, WSN-infected A549
# Conditions: glycan lost; control: si-ctrl
protein,measurement,value
B1,other: ubiquitination,decreases

# Reference: article PMC7159909
